The values that follow come from publication PMC10835137 (2024).

This assay deals with T1, IRBP 271-290 (P2) peptide on I-A^b (mouse).
T1 peptide: QTWEGSGVLPCVG
In words: multimer staining.

B1: 3 (TCR)
alpha TRAV16N TRAJ15 CDR3: CAMREGGGGRALIF
beta TRBV15 TRBJ2-3 CDR3: CASSWGRGAETLYF
Take B1: the binding result is listed as “recognises”.

B2: 4 (TCR)
alpha TRAV9-4 TRAJ31 CDR3: CAVSPHSNNRIFF
beta TRBV2 TRBJ2-7 CDR3: CASSQEGLGGLGEQYF
As to B2, the binding result is “recognises”.

B3: 1 (TCR)
alpha TRAV12D-3 TRAJ13 CDR3: CALRAGSGTYQRF
beta TRBV3 TRBJ2-7 CDR3: CASSLAGTGVYEQYF
As to B3, the binding result was “recognises”.

B4: 2 (TCR)
alpha TRAV12-2 TRAJ47 CDR3: CALSVYANKMIF
beta TRBV23 TRBJ2-4 CDR3: CSSSQTTNQNTLYF
Regarding B4, the binding result is given as “recognises”.

B5: 5 (TCR)
alpha TRAV9-2 TRAJ31 CDR3: CVLSAGNNRIFF
beta TRBV20 TRBJ2-2 CDR3: CGASGPANTGQLYF
Consider B5, for which the binding result was “recognises”.
